Source: patent US20140134169A1, “Methods of Treating Ovarian Cancer with Dll4 Antagonists” (Regeneron Pharmaceuticals, Inc., priority 2012, published 2014)

Assays:
TOV-112D cells = experiment: TOV-112D ovarian xenograft (subcutaneous) tumor growth inhibition; assay type: in vivo, human
Experimental: Ovarian tumor xenograft cells were implanted into humanized Dll4 SCID mice or vendor SCID mice (i.e., SCID mice expressing native murine Dll4). After implantation, mice were treated with REGN421 (anti-human Dll4 antibody, binds to human Dll4), mDll4Ab1 (anti-murine Dll4 antibody, binds to murine Dll4), or a human Fc domain control protein. In one study, mice were treated with VEGF-Trap, mDll4Ab1 or VEGF-Trap plus mDll4Ab1. TOV-112D cells (5×10^6) were implanted subcutaneously into the right flank of humanized Dll4 (n=4) or vendor SCID mice (n=7). Treatment with REGN421 (2.5 mg/kg, 1×/week) or mDll4Ab1 (5 mg/kg, 1×/week) vs. hFc control was initiated one week after tumor cell implantation. Animals were treated for 2 to 3 weeks. A2780 cells (2×10^6) were implanted intraperitoneally into humanized Dll4 or vendor SCID mice (n=4-5). Treatment with REGN421 (2.5 mg/kg, 1×/week) or mDll4Ab1 (5 mg/kg, 1×/week) vs. hFc control was initiated one week after tumor cell implantation. For the A2780 combination study, simultaneous treatment with mDll4Ab1 (5 mg/kg, 1×/week) and VEGF-Trap (10 mg/kg, 2×/week) was initiated one week after tumor cell implantation. A VEGF-Trap single treatment arm was included in this study. Animals bearing A2780 tumors were treated for 4-5 weeks. SKOV-3 cells (5×10^6) in matrigel were implanted subcutaneously and tumor-bearing animals (n=10) were dosed with REGN421 (2.5 mg/kg) and mDll4Ab1 (5 mg/kg) once weekly. OVCAR-3 cells (1×10^7) were implanted subcutaneously into the right flank of vendor SCID mice (n=7). Treatment with mDll4Ab1 (5 mg/kg 1×/week) vs. hFc control was initiated 66 days after tumor cell implantation. Animals were treated for a total of 5 weeks. Tumor growth inhibition (TGI) was measured as detailed above.

[1] = system: human HCT116 tumor cells (CRC); experiment: Growth of human HCT116 tumors in humanized Dll4 SCID mice (5-FU study); assay type: in vivo; conditions: REGN421 2 mg/kg sc (6 mg/kg total)
Experimental: Each mouse was implanted subcutaneously (sc) with 5×10^6 human HCT116 tumor cells (CRC). […] The mice were then treated with hFc, REGN421, 5-FU or combination of REGN421 and 5-FU. A total of 30 mice were divided into 6 groups (n=5 per cohort). The first group was treated sc with hFc at 2 mg/kg; the second group was treated sc with REGN421 at 2 mg/kg; the third and fourth groups were treated ip with 5-FU at 15 and 25 mg/kg, respectively; the fifth group was treated sc with REGN421 at 2 mg/kg and ip with 5-FU at 15 mg/kg; and the sixth group was treated sc with REGN421 at 2 mg/kg and ip with 5-FU at 25 mg/kg. REGN421 was administered every 3-4 days starting on day 22 and mice received three doses total. 5-FU was administered every 3-4 days starting on day 22 and mice received three doses total.
To assess the effects of REGN421 and 5-FU as single agents or in combination, the changes in tumor size (volume) were measured, beginning three days before the initial REGN421 treatment, and then on the day of each agent treatment (days 22, 26, 29) and thereafter every 3-4 days until tumors reach ˜600 mm^3 in size. In vivo tumor size is calculated using the formula (length×width^2)/2 (FIG. 3 and Table 5).

[2] = system: human VM-Cub1 tumor cells (bladder carcinoma cells); experiment: Growth of human VM-Cub1 tumors implanted in humanized Dll4 SCID mice; assay type: in vivo; conditions: for TGI(%): day 32; for TGD: to 600 mm3
Experimental: The humanized Dll4 SCID mouse was made by replacing the entire extracellular domain of the mouse Dll4 gene with the corresponding extracellular region of the human Dll4 gene (7 kb) in embryonic stem (ES) cells. Homozygous hDll4 mice were generated and bred into SCID background.
A total of 45 mice were divided into nine groups (n=5 per cohort). The first group was treated subcutaneously (sc) with hFc at 2 mg/kg; the second and third groups were treated sc with REGN421 at 0.5 and 2 mg/kg, respectively; the fourth and fifth groups were treated intraperitoneally (ip) with cisplatin at 0.5 and 2 mg/kg, respectively; the sixth group was treated sc with REGN421 at 0.5 mg/kg and ip with cisplatin at 0.5 mg/kg; the seventh group was treated sc with REGN421 at 0.5 mg/kg and ip with cisplatin at 2 mg/kg; the eighth group was treated sc with REGN421 at 2 mg/kg and ip with cisplatin at 0.5 mg/kg; and the ninth group was treated sc with REGN421 at 2 mg/kg and ip with cisplatin at 2 mg/kg. REGN421 was administered every 3-4 days starting on day 14 and mice received three doses total. Cisplatin was administered every 24 hours starting on day 14; mice received four doses total.
To assess the effects of REGN421 and cisplatin as single agents or in combination treatments, the changes in tumor size were recorded. Tumor growth was measured three days before the initial REGN421 treatment, on the day of each REGN421 treatment (days 14, 17 and 21) and thereafter every 3-4 days until tumors reached ˜600 mm3 in size. In vivo tumor size was calculated using the formula (length×width2)/2 (FIG. 1 and Table 1).
Tumor Growth Inhibition, TGI, was determined by calculating the difference in tumor size for treated (T) versus vehicle control (C) tumor at the day the control cohort was euthanized (i.e., at day 32); TGI=[1−(Tfinal−Tinitial)/(Cfinal−Cinitial)]×100.
Tumor growth delay, TGD, was assessed as the difference in days between treated (T) versus control (C) tumors when each cohort reached a specified tumor size. The predetermined tumor size for this experiment was 600 mm^3.

B1: REGN421 (antibody, V domains shown)
VH: QVQLVESGGGVVQPGRSLRLSCAASGFTFSSYGMHWVRQAPGKGLEWVSFLWYDGTNKNYVESVKGRFTISRDNSKNMLYLEMNSLRAEDTAVYYCARDHDFRSGYEGWFDPWGQGTLVTVSS
VL: EIVLTQSPATLSLSPGERATLSCRASQSVSSYLAWYQQKPGQAPRLLIYDASNRATGIPARFSGSGSGTDFTLTISSLEPEDFAVYYCQHRSNWPPTFGGGTKVEIK
% TGI (TOV-112D cells; Humanized Dll4 SCID mice, REGN421 2.5 mg/kg 1x/week): 86% | % TGI (TOV-112D cells; SCID mice (native murine Dll4), REGN421 2.5 mg/kg or mDll4Ab1 5 mg/kg 1x/week): 0% | anti-tumor activity (in words) (TOV-112D cells; vendor SCID mice): did not exhibit any appreciable anti-tumor activity | TGD [1]: 6 days | TGI(%) at Day 39 [1]: 36.3% | Euthanized ([2]; REGN421 0.5 mg/kg/dose sc x3): 32 days | TGI(%) ([2]; REGN421 0.5 mg/kg/dose sc x3): −13.7% | TGD ([2]; REGN421 0.5 mg/kg/dose sc x3): 0 days | Euthanized ([2]; REGN421 2 mg/kg/dose sc x3): 44 days | TGI(%) ([2]; REGN421 2 mg/kg/dose sc x3): 83.1% | TGD ([2]; REGN421 2 mg/kg/dose sc x3): 12 days | reduction in tumor growth ([2]; REGN421 alone, dose not stated): 54%
